{
  "source": "patent US20110287001A1",
  "about": "“METHOD OF TREATMENT” (TETRALOGIC PHARMACEUTICALS, priority 2008, published 2011)",
  "assay_in_all_cases": "ATPLITE cell viability, TRAIL and compound X with or without anti-human TNFα antibody",
  "assay_type_in_all_cases": "cell-based",
  "key": {"A375 melanoma cells": {"test_system": "A375 melanoma cells", "settings": "A375, 48 hours", "description": "(§1) Cells were seeded in flat-bottom 96-well plates (clear bottom, white walls) at a concentration of 1×10^4 cells/well and incubated overnight at 37° C., 5% CO2. The following day, cells were stimulated with TRAIL at a concentration ranging from 0.24 ng/ml to 1 μg/ml (4-fold dilutions) in combination with IAP inhibitor compound X at a concentration ranging from 0.01 nM to […] (10-fold dilutions).\n(§2) A blocking antibody to human TNFα (R&D Systems, Minneapolis, Minn.) was added to some cultures at a final concentration of 5 μg/ml two hours before the addition of the combination of TRAIL and compound X. Final culture volumes were 100 μl\n(§3) After 48 hours, cell viability was determined using the ATPLITE™ assay, an adenosine triphosphate (ATP) monitoring system based on firefly (Photinus pyralis) luciferase (Perkin Elmer, Waltham, Mass.) according to the manufacturer's recommendations. Relative light units (RLU) were measured using an LJL Biosystems Analyst HT plate reader (Molecular Devices, Sunnyvale, Calif.). The percent of surviving cells was calculated as follows: (experimental RLU/control RLU)×100. The control RLU was determined by testing untreated cells."}, "[1]": {"test_system": "HCT116 colon cancer cells", "description": "as §1, §2, §3"}, "[2]": {"test_system": "SKOV-3 ovarian cancer cells", "settings": "SKOV-3, 48 hours", "description": "as §1, §2, §3"}},
  "data": [
    {"molecule": "TRAIL: TNF-related apoptosis-inducing ligand (TRAIL), TRAIL receptor agonist (protein, UniProt P50591 1-281, looked up) Tumor necrosis factor ligand …: MAMMEVQGGPSLGQTCVLIVIFTVLLQSLCVAVTYVYFTNELKQMQDKYSKSGIACFLKEDDSYWDPNDEESMNSPCWQVKWQLRQLVRKMILRTSEETISTVQEKQQNISPLVRERGPQRVAAHITGTRGRSNTLSSPNSKNEKALGRKINSWESSRSGHSFLSNLHLRNGELVIHEKGFYYIYSQTYFRFQEEIKENTKNDKQMVQYIYKYTSYPDPILLMKSARNSCWSKDAEYGLYSIYQGGIFELKENDRIFVSVTNEHLIDMDHEASFFGAFLVG", "values": [
      {"measurement": "single agent killing", "setting": "A375 melanoma cells", "result": "partialy resistant"},
      {"measurement": "single agent-induced cell death", "setting": "[1]; HCT116, 48 hours", "result": "some sensitivity"},
      {"measurement": "surviving cells (percent of control)", "setting": "[1]; HCT116, TRAIL 1 μg/ml, 48 hours", "result": 40, "unit": "%"},
      {"measurement": "single agent-induced cell death", "setting": "[2]", "result": "resistant"}
    ]}
  ]
}
